Experiments:
CD8+ T cells = experiment: CD8+ T-cell proliferation assay (co-culture with cDC1); format: cell-based, mouse; conditions: 5 µM added daily
Protocol: CD8+ T cells from murine spleen and cDC1 from PyMT tumors treated in vivo with anti-IL-38 antibodies were isolated by FACS-sorting. CD8+ T cells and cDC1 were co-cultured at a ratio of 1:40 in the T-cell medium. Cells were pre-incubated with either 100 nM anti-IL-38 or 100 nM IgG isotype control, activated with mouse T-cell activator CD3/CD28 Dynabeads (Thermo Fisher Scientific) and supplemented with 10 ng/mL rm IL-2 (PrepoTech) at days 0, 2 and 5 and 50 μM β-mercaptoethanol daily. For the Notch signaling blockade, 5 µM γ-secretase inhibitor DAPT (Abcam) was added daily. For CD8+ T cell culture, 100 ng/mL rm IL-38 (AdipoGen) was added daily. Supernatants were collected for cytokine determination at days 3, 5 and 7 and cell proliferation was analyzed by flow cytometry.
To measure the cytokines in PyMT tumors and cell culture supernatants, Cytometric Bead Array Flex Sets (BD Biosciences) were used for murine IL-17A and IFN-γ. The samples were acquired via FACS and analyzed with FlowJo Software V.10 (Tree Star).

PyMT tumors [1] = experiment: Therapeutic model of chemoresistance in PyMT mice (doxorubicin with or without anti-IL-38); format: in vivo, mouse
Text: The C57BL/6N IL-38 knockout (KO) strain was previously described.[10] For the polyoma virus middle T oncoprotein (PyMT) model, IL-38 KO mice were crossed with the PyMT mammary carcinoma strain, previously bred into a C57BL/6 background.[19] Only female PyMT mice were used. Tumor development in PyMT wildtype (WT) versus IL-38 KO mice was monitored once a week for up to 8 weeks, starting at 12 weeks using electronic calipers. For IL-38 neutralization, PyMT WT mice were intraperitoneally (i.p.) injected with 100 µg of either anti-IL-38 antibody (e04, in-house generated) or IgG1 (Human IgG1, Bio X Cell) isotype control. […] The treatment started at week 13 and tumor growth was monitored once a week. Group sizes were determined based on prior experience with the model. […]
(§1) For preparing single-cell suspensions, PyMT tumors were processed with the Tumor Dissociation Kit (Miltenyi Biotec) and gentleMACS Dissociator (Miltenyi Biotec) according to standard protocols. […] Samples were acquired with an FACSymphony A5 or FACSymphony S6 flow cytometer (BD Bioscience) and the data was analyzed in FlowJo software V.10 (Tree Star). […] For the gating strategy, fluorescence minus one controls were applied. […]

[2] = target: T1, mIL-38-Avi (murine IL-38 with Avi tag) (Mus musculus, UniProt Q8R459); experiment: BLI; Octet RED96; mIL-38-Avi immobilised on streptavidin biosensors at 2 µg/mL; Fab from 250 to 7.8 nM in 1:1 dilution steps; 150 mM NaCl, 50 mM Tris-HCl pH 7.5, 0.1% BSA, 0.02% Tween 20; 1:1 analyte model with global fit; conditions: both partners purified
T1 construct: interleukin-38 (IL-38, IL-1 family member 10), mouse; PDB 8Q3J holds mIL-38 and may show the limits of the construct; also called mouse IL-38

murine IL-38 = target: T2, murine IL-38 (Mus musculus, UniProt Q8R459); experiment: Neutralization of IL-38 effect on IL-17 production by splenic γδ T cells; format: cell-based; conditions: γδ T cells on anti-CD3 plates, IL-1 and IL-23 + IL-38 and Fab, supernatants after 5 days
T2 construct: purchased AdipoGen AG-40B-0101-C010
T2 sequence (Q8R459 1-152): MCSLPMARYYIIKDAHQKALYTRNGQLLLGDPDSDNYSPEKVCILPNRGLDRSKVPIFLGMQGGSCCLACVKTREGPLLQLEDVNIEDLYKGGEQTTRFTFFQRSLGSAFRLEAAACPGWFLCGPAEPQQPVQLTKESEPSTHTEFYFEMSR
Protocol: Figure 2 IL-38 neutralization slows down tumor development and increases T-cell infiltrates into tumors. (A) Kinetic analysis and dissociation constants (Kd) of Fabs e04 and h06 selected by phage display binding to mouse IL-38 determined by biolayer interferometry. (B) Mouse splenic γδ T cells were seeded on anti-CD3 coated plates and treated with IL-1 and IL-23 + IL-38 and Fab fragments putatively recognizing […] murine IL-38. IL-17 levels in supernatants were analyzed after 5 days. Unrelated Fab fragments c05 and d09 were used as negative controls. Data are from four independent experiments. (C) SDS-PAGE analysis of purified e04 IgG. (D) Binding profile of e04 IgG and mouse IL-38 determined by biolayer interferometry. (E) Crystal structure of Fab E04 binding to recombinant IL-38. […] (F) Tumor growth was monitored when the first tumor reached 0.6 cm in diameter. […] (I) The overall immune cell profile (n=6), (J) γδ T-cell subsets (n=5–6) and (K) intracellularly produced cytokines (n=10–11) were determined by flow cytometry after 5 weeks of treatment. (L) Representative images of PyMT tumors stained for CD8, CD4 and CD3 and (M) quantification of indicated cells is shown. […] Data are shown as means±SEM. *p<0.05, **p<0.01, ***p<0.001; p values were calculated using unpaired multiple t-tests with FDR correction. […]

PyMT tumors [3] = experiment: IL-38 neutralization in PyMT mammary carcinoma model; format: in vivo, mouse
Text: The C57BL/6N IL-38 knockout (KO) strain was previously described.[10] For the polyoma virus middle T oncoprotein (PyMT) model, IL-38 KO mice were crossed with the PyMT mammary carcinoma strain, previously bred into a C57BL/6 background.[19] Only female PyMT mice were used. Tumor development in PyMT wildtype (WT) versus IL-38 KO mice was monitored once a week for up to 8 weeks, starting at 12 weeks using electronic calipers. For IL-38 neutralization, PyMT WT mice were intraperitoneally (i.p.) injected with 100 µg of either anti-IL-38 antibody (e04, in-house generated) or IgG1 (Human IgG1, Bio X Cell) isotype control. For CD8+ T cell depletion, PyMT WT mice were injected with 100 µg of anti-IL-38 antibody (e04) in combination with either 250 µg of anti-CD8 antibody (anti-mouse CD8α, Bio X Cell) or IgG2b (rat IgG2b, Bio X Cell) isotype control. In both experiments, the treatment started once the first tumor reached a size of 0.6 cm in diameter. The antibodies were injected once a week for 5 weeks. In the therapeutic model of chemoresistance, PyMT WT mice were i.p. injected with 5 mg/kg of doxorubicin (Teva Pharma) in combination with either IgG1 isotype control or anti-IL-38 antibody. The mice were treated with five once-weekly cycles of chemotherapy once the first tumor reached a size of 1.0 cm in diameter. For γδ T-cell receptor (TCR) neutralization, mice were separated into four groups, in which PyMT WT and IL-38 KO mice were treated with either anti-γδ TCR antibody (UC7-13D5, Bio X Cell) or IgG (polyclonal Armenian hamster, Bio X Cell) isotype control once a week for 5 weeks. Mice were i.p. injected once with 500 µg of antibodies, followed by 4 weekly injections of 200 µg.[20] The treatment started at week 13 and tumor growth was monitored once a week. Group sizes were determined based on prior experience with the model. No exclusion criteria were defined and no animals were excluded. Due to the nature of the model (treatment start for every single animal depends on individual parameters), simple randomization (no confounder minimization) was done and the experimenters were not blinded. Data analysis was done in a blinded manner. Animals were housed in groups at the Zentrale Forschungseinrichtung (animal testing facility), Faculty of Medicine, Goethe University Frankfurt. […]
as §1

[4] = target: T1, mIL-38-Avi (murine IL-38 with Avi tag); experiment: BLI; Octet RED96; mIL-38-Avi immobilised on streptavidin biosensors at 2 µg/mL; IgG from 250 to 7.8 nM in 1:1 dilution steps; 150 mM NaCl, 50 mM Tris-HCl pH 7.5, 0.1% BSA, 0.02% Tween 20; 1:2 bivalent model; conditions: both partners purified

C[C@H](NC(=O)Cc1cc(F)cc(F)c1)C(=O)N[C@H](C(=O)OC(C)(C)C)c1ccccc1 [DAPT]
cDC1-induced IFN-γ production by CD8+ T cells (CD8+ T cells; cytometric bead array days 3, 5 and 7): strongly inhibited
cDC1-induced proliferation of CD8+ T cells (CD8+ T cells; flow cytometry at day 7): strongly inhibited

COc1cccc2c1C(=O)c1c(O)c3c(c(O)c1C2=O)C[C@@](O)(C(=O)CO)C[C@@H]3O[C@H]1C[C@H](N)[C@H](O)[C@H](C)O1 [doxorubicin]
IL-38 expression in the tumor (PyMT tumors [1]; Il1f10 mRNA by quantitative PCR, PyMT WT mice): increased IL-38 expression in the tumor
Tumor progression (PyMT tumors [1]; late-stage setting, start at tumor size 1 cm, doxorubicin 5 mg/kg i.p., five once-weekly cycles, antibody 100 µg/mouse): did not

B1: Fab e04 (Fab, V domains shown)
VH: EVQLVESGGGLVQPGGSLRLSCAASGFSFSSSSIHWVRQAPGKGLEWVASISPYYSYTSYADSVKGRFTISADTSKNTAYLQMNSLRAEDTAVYYCARTVRGSKKPYFSGWAMDYWGQGTLVTVSS
VL: DIQMTQSPSSLSASVGDRVTITCRASQSYYSYVAWYQQKPGKAPKLLIYSASSLYSGVPSRFSGSRSGTDFTLTISSLQPEDFATYYCQQVFAPITFGQGTKVEIK
notes: heavy chain (Fd) of Fab e04 from a synthetic Fab-phage library; light chain of Fab e04 from a synthetic Fab-phage library; Selected by phage display against murine IL-38; the library is described in the online supplemental methods; also called anti-IL-38 Fab fragment; source: E. coli BL21, purified (HiTrap Protein G)
Kd [2]: 6.7 nM

B2: Fab e04: Fab fragment selected by phage display from a synthetic Fab-phage library, binds murine IL-38 (antibody, V domains shown)
VH: EVQLVESGGGLVQPGGSLRLSCAASGFSFSSSSIHWVRQAPGKGLEWVASISPYYSYTSYADSVKGRFTISADTSKNTAYLQMNSLRAEDTAVYYCARTVRGSKKPYFSGWAMDYWGQGTLVTVSS
VL: DIQMTQSPSSLSASVGDRVTITCRASQSYYSYVAWYQQKPGKAPKLLIYSASSLYSGVPSRFSGSRSGTDFTLTISSLQPEDFATYYCQQVFAPITFGQGTKVEIK
Effect on IL-38 inhibition of IL-17 production by γδ T cells (murine IL-38): neutralized the inhibitory effect of IL-38 on IL-17 production by γδ T cells

B3: IgG e04: Fab e04 converted into full-length IgG1 format; in-house generated IL-38 neutralizing antibody (antibody, V domains shown)
VH: EVQLVESGGGLVQPGGSLRLSCAASGFSFSSSSIHWVRQAPGKGLEWVASISPYYSYTSYADSVKGRFTISADTSKNTAYLQMNSLRAEDTAVYYCARTVRGSKKPYFSGWAMDYWGQGTLVTVSS
VL: DIQMTQSPSSLSASVGDRVTITCRASQSYYSYVAWYQQKPGKAPKLLIYSASSLYSGVPSRFSGSRSGTDFTLTISSLQPEDFATYYCQQVFAPITFGQGTKVEIK
Expression of the PD-1/PD-L1 immune checkpoint in tumors (PyMT tumors [3]; CD8+ T cells, macrophages, tumor cells, flow cytometry): did not observe an impact
Tumor development (PyMT tumors [3]; PyMT WT mice, 100 µg i.p. once a week for 5 weeks, start at first tumor 0.6 cm, vs IgG1 isotype): marked delay in tumor development
Abundance of CD8+ T cells and γδ T cells in tumors (PyMT tumors [3]; flow cytometry after 5 weeks of treatment, vs IgG1 isotype): increased abundance of CD8+ T cells and γδ T cells in the tumors
Cytokine-producing γδ T cells in tumors (PyMT tumors [3]; intracellular cytokine staining, flow cytometry, after 5 weeks of treatment): IFN-γ rather than IL-17-producing γδ T cells were increased

B4: e04 IgG (Fab e04 converted into full-length IgG1) (antibody, V domains shown)
VH: EVQLVESGGGLVQPGGSLRLSCAASGFSFSSSSIHWVRQAPGKGLEWVASISPYYSYTSYADSVKGRFTISADTSKNTAYLQMNSLRAEDTAVYYCARTVRGSKKPYFSGWAMDYWGQGTLVTVSS
VL: DIQMTQSPSSLSASVGDRVTITCRASQSYYSYVAWYQQKPGKAPKLLIYSASSLYSGVPSRFSGSRSGTDFTLTISSLQPEDFATYYCQQVFAPITFGQGTKVEIK
notes: variable part as the heavy chain of m2 (PDB 8Q3J), converted into full-length IgG1 format; as the light chain of m2 (PDB 8Q3J); IgG1; also called IgG e04; anti-IL-38 antibody (e04); source: Expi293F, transfected, purified from supernatant (HiTrap Protein G)
Kd [4]: 0.68 nM

From paper PMC11367332, “Neutralizing IL-38 activates γδ T cell-dependent antitumor immunity and sensitizes for chemotherapy” (Journal for Immunotherapy of Cancer, 2024)
